Measurements: PMC3159454
Where a chain is given by its changes, count along the chain named.

T1: Elk-ets (HA-tagged ETS domain) (UniProt P19419 5-86)
T1 sequence: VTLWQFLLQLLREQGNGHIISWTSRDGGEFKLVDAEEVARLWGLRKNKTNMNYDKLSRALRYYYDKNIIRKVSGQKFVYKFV

T2: ets-DM (HA-Elk-ets DNA-binding mutant) (UniProt P19419 5-86, R65A;Y66F)
T2 sequence: T1 sequence with R61A, Y62F

T3: Elk-ΔA (UniProt P19419 1-253)
T3 sequence: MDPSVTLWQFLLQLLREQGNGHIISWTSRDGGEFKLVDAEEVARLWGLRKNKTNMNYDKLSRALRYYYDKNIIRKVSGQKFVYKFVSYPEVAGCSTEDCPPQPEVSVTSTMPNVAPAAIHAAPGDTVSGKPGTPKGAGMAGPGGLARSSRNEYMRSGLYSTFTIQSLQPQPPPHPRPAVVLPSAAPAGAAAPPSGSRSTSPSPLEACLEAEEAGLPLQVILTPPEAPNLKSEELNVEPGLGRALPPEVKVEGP

B1: CON control duplex (dsDNA)
DNA 1: AGACCAACATGAATTACGACAGGCTCAGCCGGG
DNA 2: CCCGGCTGAGCCTGTCGTAATTCATGTTGGTCT
B2: E74 duplex (dsDNA)
DNA 1: CTAGAGCTGAATAACCGGAAGTAACTCAT
DNA 2: CTAGATGAGTTACTTCCGGTTATTCAGCT

Assays:
[1] = biological target: T1, Elk-ets (HA-tagged ETS domain); test: native gel EMSA
[2] = biological target: T1, Elk-ets (HA-tagged ETS domain); test: EMSA
[3] = biological target: T2, ets-DM (HA-Elk-ets DNA-binding mutant); test: native gel EMSA
[4] = biological target: PU.1-ets (HA-tagged ETS domain) (UniProt P17947 170-253); test: EMSA
[5] = biological target: T3, Elk-ΔA; test: EMSA

Binder	binding result [1]	binding result [2]	binding result [3]	binding result [4]	binding result [5]
B1	no binding				
B2		binds	no binding	binds	binds
